According to PMC10952841, “Biocatalytic synthesis of 2′‐deoxynucleotide 5′‐triphosphates from bacterial genomic DNA: Proof of principle” (Biotechnology and Bioengineering, 2023):

What was measured:
Experiment in all cases: purified protein
Type in all cases: biochemical, Escherichia coli
[1] = substrate: Nc1ccn([C@H]2C[C@H](O)[C@@H](COP(=O)(O)O)O2)c(=O)n1; conditions: 2 mM ATP, 10 mM Mg acetate, 50 mM K acetate, 20 mM Tris-acetate, 37°C, three protein batches (N = 3)
[2] = substrate: Cc1cn([C@H]2C[C@H](O)[C@@H](COP(=O)(O)O)O2)c(=O)[nH]c1=O; conditions: 2 mM ATP, 10 mM Mg acetate, 50 mM K acetate, 20 mM Tris-acetate, 37°C, three protein batches (N = 3)
[3] = substrate: Nc1nc2c(ncn2[C@H]2C[C@H](O)[C@@H](COP(=O)(O)O)O2)c(=O)[nH]1; conditions: 2 mM ATP, 10 mM Mg acetate, 50 mM K acetate, 20 mM Tris-acetate, 37°C, three protein batches (N = 3)
[4] = substrate: Nc1ncnc2c1ncn2[C@H]1C[C@H](O)[C@@H](COP(=O)(O)OP(=O)(O)O)O1; conditions: 2 mM ATP, 10 mM Mg acetate, 50 mM K acetate, 20 mM Tris-acetate, 37°C
[5] = substrate: Cc1cn([C@H]2C[C@H](O)[C@@H](COP(=O)(O)OP(=O)(O)O)O2)c(=O)[nH]c1=O; conditions: 2 mM ATP, 10 mM Mg acetate, 50 mM K acetate, 20 mM Tris-acetate, 37°C
[6] = substrate: Nc1nc2c(ncn2[C@H]2C[C@H](O)[C@@H](CO[P@](=O)(O)OP(=O)(O)O)O2)c(=O)[nH]1; conditions: 2 mM ATP, 10 mM Mg acetate, 50 mM K acetate, 20 mM Tris-acetate, 37°C
[7] = substrate: Nc1ccn([C@H]2C[C@H](O)[C@@H](COP(=O)(O)OP(=O)(O)O)O2)c(=O)n1; conditions: 2 mM ATP, 10 mM Mg acetate, 50 mM K acetate, 20 mM Tris-acetate, 37°C

B1: cytidylate kinase (cmk) (Escherichia coli K-12) (protein)
chain: MTAIAPVITIDGPSGAGKGTLCKAMAEALQWHLLDSGAIYRVLALAALHHHVDVASEDALVPLASHLDVRFVSTNGNLEVILEGEDVSGEIRTQEVANAASQVAAFPRVREALLRRQRAFRELPGLIADGRDMGTVVFPDAPVKIFLDASSEERAHRRMLQLQEKGFSVNFERLLAEIKERDDRDRNRAVAPLVPAADALVLDSTTLSIEQVIEKALQYARQKLALA
notes: C-terminal 6x His tag (pET24a), kept; E. coli BL21(DE3) host; Ni-NTA
Km [1]: 314 ± 154 µM
Vmax [1]: 69.3 µmol/min/mg

B2: thymidylate kinase (tmk) (Escherichia coli K-12) (protein)
chain: MRSKYIVIEGLEGAGKTTARNVVVETLEQLGIRDMVFTREPGGTQLAEKLRSLVLDIKSVGDEVITDKAEVLMFYAARVQLVETVIKPALANGTWVIGDRHDLSTQAYQGGGRGIDQHMLATLRDAVLGDFRPDLTLYLDVTPEVGLKRARARGELDRIEQESFDFFNRTRARYLELAAQDKSIHTIDATQPLEAVMDAIRTTVTHWVKELDA
notes: as for B1
Km [2]: 150 ± 22 µM
Vmax [2]: 39.4 µmol/min/mg

B3: guanylate kinase (gmk) (Escherichia coli K-12) (protein)
chain: MAQGTLYIVSAPSGAGKSSLIQALLKTQPLYDTQVSVSHTTRQPRPGEVHGEHYFFVNHDEFKEMISRDAFLEHAEVFGNYYGTSREAIEQVLATGVDVFLDIDWQGAQQIRQKMPHARSIFILPPSKIELDRRLRGRGQDSEEVIAKRMAQAVAEMSHYAEYDYLIVNDDFDTALTDLKTIIRAERLRMSRQKQRHDALISKLLAD
notes: as for B1
Km [3]: 848 ± 402 µM
Vmax [3]: 76.2 µmol/min/mg

B4: nucleotide disphosphate kinase (ndk; NDK) (Escherichia coli K-12) (protein)
chain: AIERTFSIIKPNAVAKNVIGNIFARFEAAGFKIVGTKMLHLTVEQARGFYAEHDGKPFFDGLVEFMTSGPIVVSVLEGENAVQRHRDLLGATNPANALAGTLRADYADSLTENGTHGSDSVESAAREIAYFFGEGEVCPRTR
notes: as for B1
Km [4]: 1185 ± 87 µM
Km [5]: 2398 ± 1036 µM
Km [6]: 431 ± 89 µM
Km [7]: 543 ± 105 µM
